In article PMC9883448:

Assays:
Assay in all cases: FRET or BRET; apparent FRET efficiency by donor (CFP) dequenching after photobleaching of the acceptor (YFP) with 514 nm in a membrane region of whole Xenopus oocytes that co-express the two labelled subunits (cRNAs 1:1)
[1] = molecular target: human mGluR5 FRET sensor subunit (CFP or YFP in the intracellular loop i2, C-terminal tail replaced by a GABAB tail)
[2] = molecular target: human mGluR8 FRET sensor subunit (CFP or YFP in the intracellular loop i2, C-terminal tail replaced by a GABAB tail)
[3] = molecular target: human mGluR3 FRET sensor subunit (CFP or YFP in the intracellular loop i2, C-terminal tail replaced by a GABAB tail)
[4] = molecular target: human mGluR4 FRET sensor subunit (CFP or YFP in the intracellular loop i2, C-terminal tail replaced by a GABAB tail)

increase of donor light intensity after photobleaching of the acceptor (FRET efficiency) [1] [%]	apparent FRET efficiency (donor dequenching) [2] [%]	apparent FRET efficiency (donor dequenching) [3] [%]	apparent FRET efficiency (donor dequenching) [4] [%]	Substance
23	–	–	–	human mGluR5 FRET sensor subunit (CFP or YFP in the intracellular loop i2, C-terminal tail replaced by a GABAB tail) (receptor)
–	13	–	–	human mGluR4 FRET sensor subunit (CFP or YFP in the intracellular loop i2, C-terminal tail replaced by a GABAB tail) (receptor)
–	35	35	35	human mGluR2 FRET sensor subunit (CFP or YFP in the intracellular loop i2, C-terminal tail replaced by a GABAB tail) (receptor)
